Assay: yeast display, Sf9 membrane polyspecificity reagent, FACS + sequencing; frameworks hold sequencing errors
Summary of the method: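 A synthetic nanobody library was expressed on Saccharomyces cerevisiae BJ5465 by galactose induction for 36–48 hours. The library was stained for 1 hour at 4 °C with 10% biotinylated, detergent-solubilized Sf9 membrane reagent and enriched with streptavidin microbeads before FACS. Low and high (top ~1%) gates were set on anti-HA fluorescence for expression and streptavidin fluorescence for reagent binding, and each polyreactivity label reflects the gate of origin.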

Row | Sequence | polyreactivity (PSR sort gate)
1 | KVQLVESGGGLVQAGGSLRLSCAASGSIFWDNVMGWYRQAPGNERELVADIDSWDGGSTYYADSVKGRFTISRDNAKNTVYLQMNSLKPEDTAVYYCNSDVLWWRGGDDFWGKGTQVTVSS | low polyreactivity
2 | QVQLVESGGGLVQAGGSLRLICAASGSTFLSNAMGWYRQATGKERELVAAITTSGTSTFYSDSVKGRFTISRDNAKNTVYLQMNSMKPEDTAVYYCAADSAHRYIPVQGYDYWGQGTQVTVSS | low polyreactivity
3 | QVQLVESAGGLVQAGGSLRISCAASGIIFARYSMGWYRPAPGKERELVAAINSSGGDTYYADSVKGRFTISRDTANNTVYLQMISLKPEDPAVYYCAKVISYLVVLPRTERYEGDYWGQGTQVTVSS | low polyreactivity
4 | QVQLVESGGGLVQAGGSLRLSCAASGRIFPWYAMGWYRQAPGRVREFLAVISRSGGSTYYADSVKGRFTISRDNAKNTVYLQMNSLKPEDTAVYYCAADGKFEYDYWGQGTQVTVSS | low polyreactivity
5 | QVQLVESGGGLVQAGGSLRLSCAASGRIFSRYAMGWYRQAPGTERELVAAISASGGSTYYADSVKGRFTISRDNAKNTVYLQMNSLKPEDTAVYYCNAYQTSTTLFPGYGYWGQGTQVTVSS | low polyreactivity
6 | QVQHVESRGGLVQAGGSLRLSCAASGIILSPYAMGWYRQAPGKERELVAAISRSGGSTYYADSVKGRFTISRDNAKNTVYLQMNSLKPEDTAVYYCAARYHVYSNYYKYDYCGQGTQVTVSS | high polyreactivity
7 | QDQLVESGGGLVQAGGSLRLSCAASGRTFGEYAMGWYRQAPGKERELVAAISSTGSTYYADSVKGRFTISRDNAKNTVYLQMNSLKPEDTAVYDCAAEIVRYGDEYDYWGQGTQVTVSS | low polyreactivity
8 | QVQLVESGGGLVQAGGSLRLSCADSGGIFNTYAMGWYRQAPGKEREFVAAISRRGGGTYYADSVKGRFTISRDNAKNTVYLQMNSLKPEDTAVYYCAAKRFHEHGYWGQGTQVTVSS | high polyreactivity
9 | QVQLVESGGGLVQAGGSLRLSCAASGSIFQYYAMGWYRQAPGKEREFVAAISSSGGSTYYADSVKGRFTISRDNAKNTVSLQMNSLKPEDNAVYYCNTPYNGFRFDYWGQGTQVTVSS | low polyreactivity
10 | QAQLVDSGGGLVQEGGSLRLSCAASGLIFDANVMGSYRQAPGKERELVAAISWSGGRTYYADSVKGRFTISRDNAKNTVFFQMNSMNPEVTAVYYCAADTWPDMHDYWGQGTQVTVSS | low polyreactivity
11 | QVQLVESGGGLVQAGGSLRLICAASGFTFAKYAMGSYTQAPGKERQLVAGITGNSGTTYYADSVKGRFTISRDNAKNTVYLQMNSLKPEDTAVYYCAAEEVSWNGTGDYWGQGTQVTVSS | high polyreactivity
12 | QVQLVESGGGLVQAGGSLRLSCAASGRIFYGYTMGWYRQAPGKERELVASITIRGSRTYYADSVKGRFTISRDNAKNTVYLQMNSLKPEDTAVYSCAADFVPARTVHRYDYWGQGTQVTVSS | low polyreactivity
13 | QVQLVESGGGLVQAGGSLRLSCAGSGSTFDGNAMGWYRQAPGKDRELVAAITSGGSTNYADSVKGRFTISRDNAKNTVYLQMNSLKPEDTAVYYCAADTVSFSILYDYWGQGTQVTVSS | low polyreactivity
14 | QVQLVESGGGLVQAGGSLRLSCAASGRIFSIYGMGWSRQAPGKERELVAVISGSVGITYYADSVKVRFTISRDNAKNTVYLQMISLKPEDTAVYYCNAKVRRRKYDYWGQGTQVTVSS | high polyreactivity
15 | QVQLVESGGGLVQAGGSLRLSCAASGFTFATYDMGLYRQAPGKERELVAAISRSGGRTYYADSVKVLFTISRDYAKNTVYLQMNSLKPEDTAVYYCAKYVPGYPYDYWGQGTQVTVSS | high polyreactivity
16 | QVQLVESGGGLVQAGGRLRLSCAASGITFRWYAMGWYRQAPGKERELVAAITTSGDSTYYADSVKGRFTISRDNAKNTVYLQMNSLKPEDTAVNYCAAKYQSLRTYGYGFDYWGQGTQVTVSS | high polyreactivity
17 | QVQLVDSGGGLVQAGGSLRLSCAASGFTIPYYAMGWYRQAPGKERELVAAISSGGRTNYADSVKGRFTISRDNAKNTVYLPMNSLKPEDTAVYYCATRSYVFAWEFYYWGQGTQVTVSS | high polyreactivity
18 | QVQLVESGGGLVQAGGSLRLSCAASGRIFHHNAMGWYRQAPGKERELVATITKSGGSTYADSVKGRFTISRDNAKNTVYLQMNSLKPEDTAVYYCDADVTNRGTWVIYGYYYWGQGTQVTVSS | low polyreactivity
19 | QVQLVESGGGLVQAGGSLRLRCAASGSIFPPYAMGWYRQAPGKERELVAVISFSSGRTYYADSVKGRFTISRDNAKNTVYLQMNSQKPEDTAVYYCAADYESRNKFDYWGQGTQVTVTS | low polyreactivity
20 | QVQLVESGGGLVQAGGSLRLSCAASGSIFERYAMGWYRQAPGKERELVATISKSGDSTYYADSVKGRFTISRDNAKNTVYLQMNSQKPEDTAVYYCAADGWSETSDATFYYWGQGTQVTVSS | low polyreactivity
21 | QVQLVESGGGLVQAGGSLRLSCAASGSTLYVNAMGWYRQAPGKERELVAAISWSGGSTNYADSVKGRFTISRDNAKNTVYLQMNSLKPEDTAVYYCNVDSVVWDNAWYLYDYWGQGTQVTVSS | low polyreactivity
22 | QVQLVESGGGLVQAGGSLRLSCAASGRTLVYNAMGWYRQAPGKERELVAAITTDGGDTYYADSVKGRFTISRDNAKNTVYLQMNSLKPEDTAVYYCAADYVALYYWYDYWGQGTQVTVSS | low polyreactivity

Row | Sequence | polyreactivity (PSR sort gate)
23 | QVQLVESGGGLVQAGGSLRLSCAASGFIFWRYAMGWYRQAPGKERELVASITSTGGSTYYADSVKGRFTISRDNAKNTVYLQMNSLKPEDTAVYYCAADTFVWADWSWHYYWGQGTQVTVSS | high polyreactivity
24 | QVQLVESGGVLVQAGGSLRLSCAASGSIFAGNAMGWYRQEPGKERELVAAISRSGTRTYYADSVKGRFTISRDNAMNTVYLQMNSLKPEDTAVYYFAAYLPYRQGRYGYEYWGQGTQVTVSS | high polyreactivity
25 | QVQLVESGGGLVQAGGSLRLSCAASGRIFTRYAMGWYRPAPGKERELVAVIRYSGGSTYYADSVKGRFTISRDNAKNTVYLQMNSLKPEDTAVYYCAAYARGVRRYRRYDYWGQGTQVTVSS | high polyreactivity
26 | QLQLVESGGGLVQAGGSLRLSCAASGSISAVNTMGWYRQAPRKERELVATISYSTASTYYADSVKGRFTISRDNAKITVYLQINSRKPEDTAFYYCNKDGRRYAYNSEYDHWGQGTQVTVSS | low polyreactivity
27 | QVQLVESGGGLVHAGGSLRLSCAASGRIFTYYGMGWYRQAPGKERELVAAITWNGGSTYYADSVKGRFTISRDNAKNTVYLQMNSLKPEDTAVYYCNAVVYARSGGAQYGYWGQGTQVTVSS | low polyreactivity
28 | QVQLEESAGGLVQAGGSLRLSCAASGIIFSGNAMGWYRQATGKERELVAAITLSGGSTYYADSVKGRFTISRDNAKNTVYLQMNSLKPEDTAVYYCNAVYDTIYSLRDIDTEYGSWGQGTQVTVSS | low polyreactivity
29 | QVQLVESGGGLVQAGGSLRLSCAASGIIFYVYAMGWYRQAPGKERELVAAISSTSSTYADSVKGRFTISRDNAKNTVYLQMNSLKPEDTAVFYCNTDYSDGYPAFDYWGQGTQVTVSS | low polyreactivity
30 | QVQLVESGGGLVQAGGSLRLSCAASGSTFAFNTKGWYRQAPGKERELVAGISSNGGRTYYADSVKGRFTISRDNAKNTVYLQMNSLKPEDTAVYYCNALRRYVSVRPTKSDDWGQGTQVTVSS | high polyreactivity
31 | QVQLVESGGGLVQAGGSLRLSCAASGSTFYPNAMGWYRQAPGKERELVAAITDSVGTTNYADSVKGRFTISRDNAKNTVYLQINSLKPEDTAVYYCTAPIGGSYNTRRAAEYDYWGQGTQVTVSS | low polyreactivity
32 | QVQLVESGGGLVQAGGSLRLSCAASGRISWGYAMGWYRQAPGKERELVAVINFNGGRTYYADSVKGRFTISRDNAKNTVYLQMNSLKPEDTAVYYCAADSGYEYDYWGQGTQVTVSS | low polyreactivity
33 | QVQLVESGGGLVQAGGSLRLSCAASGSIFVLNAMGLYRQAPGKERELVAGISSSGGSTYYADSVKGRFTISRDNAKNTVYLQMNSLKPEDTAVYYFAKDAGLYEGDYWGQGTQVTVSS | low polyreactivity
34 | QVQLEESGGGLVQAGGSLRLSCAASGFTFDVYAMGWYRQAPGKERELVAAIDSGGSTNYADSVKGRFTISRDNAKNTVYLQMNSLKPEDTAVYYCAVRYWKTLSHFSYDYWGQGTQVTVSS | low polyreactivity
35 | QVQLVESGGGLVQAGGSLRLSCAASGRILVSYAMGWYRQAPGKERELVAAISRSGGSTYYADSVKGRFTISRDNAKNTVYLQMNSLKPEDTAVYYCNVYRFSRYDYWGQGTQVTVSS | high polyreactivity
36 | QVQLVESGGGLVQAGGSLRLSCAAAGSIFRGYAMGWYRQEPEKERELVADISRRGGSTYYADSVKGRFTISRDNAKNTVYLQMNSLKPEDTAVYYCAKDGTGAGTYDYWGQGTQVTVSS | low polyreactivity
37 | QVQLVESGGGLVQAGGSLRLSCAASGSTFFRNAMGCYRQAPGKERELVADISASGGSTYYADSVKGRFTISRDNAKNTVYLQMNSLKPEDTAVYYCNALYIYFYNYLTMDYWGQGTQVTVSS | low polyreactivity
38 | QDQLVESGGRLVQAGGSLRLSCAASGRTFYYYAMGWYRQAPGKERELVARIRSGGSTNYADSVKGRFTISRDNAKNSVYLQMNSLKPEDTAVYYCNALGAKGYVKGFDYWGQGTQVTVSS | low polyreactivity
39 | QVQLVESGGGLVQAGGSLRLSCAASGRIFLKYTLGWYRQAPGKERELVAAISRGGSTYYADSVKGRFTISRDNAKNTVYLQMNSLKPEDSAVYYCAATSYRRTGYNYWGQGTQVTVSS | high polyreactivity
40 | QVQLVESGGGLVHAGGSLRLSCAASGRTFKFYAMGWYRQAPGKERELVAAISGSGGTTRYADSVKGRFTISRDNAKNTVYLQMNSLKPEDTAVYYCAARPPGLALEYGYWGQGTQVTVSS | high polyreactivity
41 | QVQLVESGGGLVQAGGSLRLSCAASGGTFYHNVMGWYRQAPGKERELVAAIRYSGGRTYYADSVKGRFTLSRDNAKNTVYLQMNSLKPEDTAVYYCAVRSYYGPFGYWGQGTQVTVSS | high polyreactivity
42 | QVQLVESGGGLVQAGGSLRLSCAASGSTFTVYDMGWYRQAPGKERELVAGISRRGSSTYYADSVKGRFTISRDNAKNTVYLQMNSLKPEDTAVYYCAARGAVIRYPDKRYPVRYDYWGQGTQVTVSS | high polyreactivity
43 | QVQLVESGGGLVQAGGSLRLSCAASAFILYRNAMGWYRQAPGKERELVAAITWNGDRTHYADSVMGRFTISRDNAKNTVYLQMNSLKPEDNAVYYCAAYYVSVRGGRYRNKWYDHWGQGTQVTVSS | high polyreactivity

— the nanobody polyreactivity screen of Harvey et al. (2022)
